The values below are quoted from earlier work in paper PMC6375914.

For orientation: Kd means a measure of binding affinity in units of concentration.

In data set [1] the target is Ubc9 (Homo sapiens) (UniProt P63279). Briefly: SPR.
Data set [2] shares this target. Briefly: ITC. A general note: Isothermal titration calorimetry measures the heat released or taken up as one component is titrated into another.

UniProt P63279, sequence (P63279 2-158): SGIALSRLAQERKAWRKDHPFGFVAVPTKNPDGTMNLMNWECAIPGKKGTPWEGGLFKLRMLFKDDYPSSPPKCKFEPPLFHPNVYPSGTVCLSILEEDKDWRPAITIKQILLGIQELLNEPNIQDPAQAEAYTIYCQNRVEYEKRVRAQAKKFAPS

SUMO1 (from UniProt P63165): the Kd in data set [1] is 350 nM; in data set [2] it was 250 nM.
